Experimental data reported in patent publication US20230416362A1 (published 2023).

T1: recombinant human TIGIT IgV domain (UniProt Q495A1 22-141)
T1 chain: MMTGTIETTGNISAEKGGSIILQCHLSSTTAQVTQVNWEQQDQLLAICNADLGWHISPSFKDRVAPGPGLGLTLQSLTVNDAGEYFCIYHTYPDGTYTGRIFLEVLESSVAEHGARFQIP

T2: recombinant mouse TIGIT IgV domain (UniProt P86176 29-145)
T2 chain: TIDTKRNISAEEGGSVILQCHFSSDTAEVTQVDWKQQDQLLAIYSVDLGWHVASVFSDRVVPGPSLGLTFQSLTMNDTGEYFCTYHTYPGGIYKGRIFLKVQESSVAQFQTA

B1: 7D4 (antibody, V domains shown)
VH: QVQLKHSGAELVRPGTSVKMSCKASGYTFTNYWIGWAKQRPGHGLEWIGDIYPGSSFTNSNEKFKGKATLTADKSSSTAYMQFSSLTSEDSAIYYCAKLGRGYWYFDVWGTGTSVTVSA
VL: DIVLTQSPAIMSASLGEEITLTCSASSSVSYIHWYQQKSGTSPKLLIYTTSNLASGVPSRFSGSGSGTFYSLTISSVEAEDAADYYCHQWSRYPTFGGGTKLEIK
B2: 2C9 (antibody, V domains shown)
VH: DIQLKQSGAELVRPGASVKLSCKASGYTFTDSYINWVKQRPGQGLEWIARFYPGSGNTYYNEKFKGKATLTAEKSSSTAYMQLSSLTSEDSAVYFCAREAWLLFYGMDYWGQGTTVTVSS
VL: DIVLTQSPAIMSASPGEKVTISCSANSSVSYMYWYQQKPGSSPKPWIYRTSNLASGVPARFSGSGSGTSYSLTISSMEAEDAATYYCQQYHSYPLTFGAGTKLELK
B3: 3A9 (antibody, V domains shown)
VH: QVQLQQPGAELVRPGSSVKLSCKASGYTFTSYWMHWVKQRPIQGLEWIGNIDPSDSATHYNQKFKDKATLTVDKSSSTAYMHLSSLTSEDSAVYYCARTGIDYGSSYFDYWGQGTILTVSS
VL: DIVLTQSPASLAVSLGQRATISCRASQSVSTSSYSYIHWYQQKPGQPPKLLIKYASNLESGVPARFSGSGSGTDFTLNIHPVEEEDTATYYCQHNWEIPRTFGGGTKLEIK

Key:
Assay in all cases: ELISA
[1] = biological target: T1, recombinant human TIGIT IgV domain
[2] = biological target: cyno TIGIT IgV domain
cyno TIGIT IgV domain, sequence (Q495A1 other isoform, or with tags, fused parts or gaps): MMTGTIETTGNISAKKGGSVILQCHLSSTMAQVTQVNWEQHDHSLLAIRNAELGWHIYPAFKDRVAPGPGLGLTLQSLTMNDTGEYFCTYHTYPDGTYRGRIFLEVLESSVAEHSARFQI

[3] = biological target: T2, recombinant mouse TIGIT IgV domain

Row | Binder | EC50 [1] [nM] | EC50 [2] [nM] | EC50 [3] [nM]
1 | B1 | 0.13 | 21.3 | –
2 | B2 | 0.23 | 69.9 | 138
3 | B3 | 0.38 | 4.46 | 172
